Where a SMILES comes first, the peptide text is derived from it. Bridges are numbered along the chain shown (N, C = ends). Where no end group is shown, it is not given here. The star is where a group is joined. CH3O(CH2CH2O)11CH2CH2CO = COCCOCCOCCOCCOCCOCCOCCOCCOCCOCCOCCOCCC(=O)*; PEG2K = PEG2K (polydispersed); PEG1K = polydispersed PEG1K
Molecular target: Recombinant human NEP (Homo sapiens, UniProt P08473)
Assay: in vitro NEP cleavage assay (disappearance of non-cleaved CNP variant)
Experimental: To determine the effects of amino acid substitutions, amino acid extensions, backbone modifications, side chain modifications and PEGylation on the susceptibility of CNP variants to neutral endopeptidase (NEP) cleavage, peptide cleavage assays were carried out using an in vitro assay that monitored disappearance of the non-cleaved CNP variant.
Recombinant human NEP (1 ug/mL final concentration) was added to 100 uM CNP variant diluted in 0.1 M Tris, pH 7. The reaction mixture was incubated at 37° C. for various periods of time, and the reaction was quenched with EDTA (10 mM final) followed by heat denaturation. The reaction mixture was reduced and then the reaction products were analyzed using HPLC and mass spectroscopy. The half-life of the CNP variant was calculated based on the disappearance of intact CNP variant over time.

Recombinant human NEP, sequence (P08473 whole entry): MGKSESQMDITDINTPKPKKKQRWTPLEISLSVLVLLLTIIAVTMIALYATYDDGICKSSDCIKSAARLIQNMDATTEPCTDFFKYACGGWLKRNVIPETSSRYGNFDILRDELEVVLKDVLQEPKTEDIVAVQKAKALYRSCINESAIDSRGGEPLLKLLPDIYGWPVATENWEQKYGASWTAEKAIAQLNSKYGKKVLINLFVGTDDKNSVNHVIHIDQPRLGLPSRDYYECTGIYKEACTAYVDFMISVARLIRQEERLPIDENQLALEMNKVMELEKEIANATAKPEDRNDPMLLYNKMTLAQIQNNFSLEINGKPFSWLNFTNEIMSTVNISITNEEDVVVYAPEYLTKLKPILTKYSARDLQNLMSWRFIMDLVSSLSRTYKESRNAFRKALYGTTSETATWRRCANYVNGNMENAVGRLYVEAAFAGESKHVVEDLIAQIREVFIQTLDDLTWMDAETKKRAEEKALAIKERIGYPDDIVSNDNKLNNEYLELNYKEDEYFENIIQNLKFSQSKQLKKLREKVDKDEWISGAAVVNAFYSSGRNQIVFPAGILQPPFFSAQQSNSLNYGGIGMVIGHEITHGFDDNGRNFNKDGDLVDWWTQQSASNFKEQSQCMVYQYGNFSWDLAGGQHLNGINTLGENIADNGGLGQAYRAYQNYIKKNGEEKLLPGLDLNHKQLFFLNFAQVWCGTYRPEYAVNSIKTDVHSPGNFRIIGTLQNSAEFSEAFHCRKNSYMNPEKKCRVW

Row | Molecule | resistance to NEP cleavage (in words) | NEP Cleavage (t1/2, min) (pH 7) | NEP Cleavage (t1/2, min) (100 uM peptide, 1 ug/mL NEP, 0.1 M Tris pH 7, 37° C., adjusted t1/2, CNP22 normalized to 80 min)
1 | CC[C@H](C)[C@@H]1NC(=O)[C@H](CCCNC(=N)N)NC(=O)[C@H](CC(=O)O)NC(=O)[C@H](CC(C)C)NC(=O)[C@H](CCCCN)NC(=O)[C@H](CC(C)C)NC(=O)CNC(=O)[C@H](Cc2ccccc2)NC(=O)[C@@H](NC(=O)CNC(=O)[C@H](CCCNC(=N)N)NC(=O)[C@H](CO)NC(=O)[C@H](CC(C)C)NC(=O)CNC(=O)[C@H](CCCNC(=N)N)NC(=O)[C@@H]2CCCN2C(=O)[C@H](CC(N)=O)NC(=O)[C@H](C)NC(=O)CNC(=O)CCOCCOCCOCCOCCOCCOCCOCCOCCOCCOCCOCCOC)CSSC[C@@H](C(=O)O)NC(=O)CNC(=O)[C@H](CC(C)C)NC(=O)CNC(=O)[C@H](CO)NC(=O)[C@H](CCSC)NC(=O)[C@H](CO)NC(=O)CNC1=O [PEO12-GANPR-CNP22(K4R)] ({CH3O(CH2CH2O)11CH2CH2CO}-GANPRGLSRGCFGLKLDRIGSMSGLGC-OH; disulfide 11-27; C-terminus assumed) | same half-life as wtCNP22 |  | 
2 | PEG1K-GANRR-CNP22(K4R): GANRR-CNP22, K4R (SEQ ID NO: 36) conjugated at the N-terminus to PEG1K (PEG1K-GANRRGLSRGCFGLKLDRIGSMSGLGC; not fully specified (bridges); ends and bridges not checked) |  | >160 min | 
3 | CC[C@H](C)[C@@H]1NC(=O)[C@H](CCCNC(=N)N)NC(=O)[C@H](CC(=O)O)NC(=O)[C@H](CC(C)C)NC(=O)[C@H](CCCCN)NC(=O)[C@H](CC(C)C)NC(=O)CNC(=O)[C@H](Cc2ccccc2)NC(=O)[C@@H](NC(=O)CNC(=O)[C@H](CCCCN)NC(=O)[C@H](CO)NC(=O)[C@H](CC(C)C)NC(=O)CNC(=O)CCOCCOCCOCCOCCOCCOCCOCCOCCOCCOCCOCCOCCOCCOCCOCCOCCOCCOCCOCCOCCOCCOCCOCCOC)CSSC[C@@H](C(=O)O)NC(=O)CNC(=O)[C@H](CC(C)C)NC(=O)CNC(=O)[C@H](CO)NC(=O)[C@H](CCSC)NC(=O)[C@H](CO)NC(=O)CNC1=O [PEO24-CNP22] | resistant to NEP degradation over the assay period of 160 minutes |  | >>160 min
4 | PEG2K-CNP22(K4G): CNP22 having a K4G substitution, N-terminal PEGylated with PEG2K (PEG2K-GLSGGCFGLKLDRIGSMSGLGC; not fully specified (bridges); ends and bridges not checked; UniProt P23582 105-126, looked up, variant K4G) | only slightly more resistant to NEP cleavage than CNP22 |  | 
5 | CC[C@H](C)[C@@H]1NC(=O)[C@H](CCCNC(=N)N)NC(=O)[C@H](CC(=O)O)NC(=O)[C@H](CC(C)C)NC(=O)[C@H](CCCCN)NC(=O)[C@H](CC(C)C)NC(=O)CNC(=O)[C@H](Cc2ccccc2)NC(=O)[C@@H](NC(=O)CNC(=O)[C@H](CCCNC(=N)N)NC(=O)[C@H](CO)NC(=O)[C@H](CC(C)C)NC(=O)CNC(=O)[C@@H](N)CCCNC(=N)N)CSSC[C@@H](C(=O)O)NC(=O)CNC(=O)[C@H](CC(C)C)NC(=O)CNC(=O)[C@H](CO)NC(=O)[C@H](CCSC)NC(=O)[C@H](CO)NC(=O)CNC1=O [Analog AZ] (H-RGLSRGCFGLKLDRIGSMSGLGC-OH; disulfide 7-23) | most resistant to NEP degradation |  | 
6 | DLRVDTKSRAAWARLLQEHPNARKYKGANKKGLSKGCFGLKLDRIGSMSGLGC (disulfide 37-53) [Analog BM, reference compound] | resistant to NEP degradation |  | 
7 | PEG2K-CNP22: CNP22 conjugated at the N-terminus to polydispersed PEG2K |  | >>160 min | 
8 | PEG5K-CNP22: CNP22 conjugated at the N-terminus to polydispersed PEG5K | resistant to NEP degradation over the assay period of 160 minutes | >>160 min | 
9 | PEG1K-CNP22: CNP22 conjugated at the N-terminus to polydispersed PEG1K |  | >160 min | 
